This data set concerns the molecule itself. The data set can be described thus: SEC. (In general: Size exclusion chromatography separates by hydrodynamic size, large species first.)

Where a chain is given by its changes, count along the chain named. Names may count otherwise.

For orientation: stoichiometry N means the number of molecules, sites or subunits per partner or assembly.

B1: MscSΔW L105W (W16Y/W240F/W251F/L105W), small mechanosensitive channel MscS-H6 (natural protein)
chain: MEDLNVVDSINGAGSYLVANQALLLSYAVNIVAALAIIIVGLIIARMISNAVNRLMISRKIDATVADFLSALVRYGIIAFTLIAALGRVGVQTASVIAVLGAAGWAVGLALQGSLSNLAAGVLLVMFRPFRAGEYVDLGGVAGTVLSVQIFSTTMRTADGKIIVIPNGKIIAGNIINFSREPVRRNEFIIGVAYDSDIDQVKQILTNIIQSEDRILKDREMTVRLNELGASSINFVVRVFSNSGDLQNVYFDVLERIKREFDAAGISFPYPQMDVNFKRVKEDKAA
For B1, the “stoichiometry N” value worked out at 7.

B2: MscSΔW L105W/A106V (W16Y/W240F/W251F/L105W/A106V), small mechanosensitive channel MscS-H6 (natural protein)
chain: B1 chain with A106V
For B2, the “stoichiometry N” value is 7.

The values above are taken from publication PMC2820766 (The Journal of Biological Chemistry, 2009).
